Test results reported in patent US6780603.

Molecular target: α2β1 integrin receptor of human mesangial cells (human) (UniProt P05556)
Test: cell-based or functional assay

inhibition of adhesion of human mesangial cells grown in 5 mM glucose to cIV (percent of binding in the presence of W6/32): 60%
inhibition of adhesion of human mesangial cells grown in 25 mM glucose to cIV (percent of binding in the presence of W6/32): 75%
Substance: P1H5 anti-α2 integrin monoclonal antibody
